Assay results: patent US20220411501A1 (INTERNATIONAL DRUG DEVELOPMENT BIOTECH, published 2022)

Legend:
[1] = molecular target: T1, CD117 (c-Kit, stem cell factor receptor) on HEL or TF1 human erythroleukemia cells (human, UniProt P10721 26-976); assay: flow cytometry on HEL cells; 0.1 µl/2.10^5 cells
T1 construct: whole, on cells
Method: (§1) By flow cytometry, the humanized mAb staining was analyzed on HEL CD117 positive cell line. […] No staining was observed on the cell line CEM (CD117 negative, (data not shown).

[2] = molecular target: T1, CD117 (c-Kit, stem cell factor …); assay: flow cytometry on HEL cells; 1 µl/2.10^5 cells
Method: as §1

[3] = molecular target: T1, CD117 (c-Kit, stem cell factor …); assay: flow cytometry on HEL cells; 100 µl/2.10^5 cells
Method: as §1

[4] = molecular target: T1, CD117 (c-Kit, stem cell factor …); assay: flow cytometry on HEL cells; 10 µl/2.10^5 cells
Method: as §1

T1 sequence (P10721 26-976): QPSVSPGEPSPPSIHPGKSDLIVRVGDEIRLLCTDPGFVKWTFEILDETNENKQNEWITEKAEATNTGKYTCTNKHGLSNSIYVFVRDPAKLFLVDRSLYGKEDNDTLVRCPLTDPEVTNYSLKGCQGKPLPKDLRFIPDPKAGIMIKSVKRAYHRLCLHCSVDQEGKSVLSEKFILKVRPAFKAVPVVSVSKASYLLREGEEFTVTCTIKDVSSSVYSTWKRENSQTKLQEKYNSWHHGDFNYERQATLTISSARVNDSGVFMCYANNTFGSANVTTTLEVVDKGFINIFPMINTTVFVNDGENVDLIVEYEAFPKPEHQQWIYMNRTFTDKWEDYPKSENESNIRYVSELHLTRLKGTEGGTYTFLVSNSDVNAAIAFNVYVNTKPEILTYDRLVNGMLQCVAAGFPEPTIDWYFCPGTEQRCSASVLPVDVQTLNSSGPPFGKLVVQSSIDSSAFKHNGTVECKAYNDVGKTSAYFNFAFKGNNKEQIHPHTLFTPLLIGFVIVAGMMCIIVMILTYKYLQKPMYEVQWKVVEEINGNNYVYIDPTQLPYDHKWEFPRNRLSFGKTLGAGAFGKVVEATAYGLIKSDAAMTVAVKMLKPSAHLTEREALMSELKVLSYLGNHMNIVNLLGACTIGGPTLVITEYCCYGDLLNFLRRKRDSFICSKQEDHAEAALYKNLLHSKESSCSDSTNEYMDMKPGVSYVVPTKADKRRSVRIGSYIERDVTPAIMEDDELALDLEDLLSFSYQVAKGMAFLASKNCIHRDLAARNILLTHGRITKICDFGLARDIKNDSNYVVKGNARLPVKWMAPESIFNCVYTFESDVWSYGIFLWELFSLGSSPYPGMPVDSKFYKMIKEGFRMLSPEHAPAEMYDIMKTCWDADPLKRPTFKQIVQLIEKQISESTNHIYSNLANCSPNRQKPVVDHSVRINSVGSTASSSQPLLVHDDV

| Binder | % labelled HEL cells [1] [%] | MFI [1] | % labelled HEL cells [2] [%] | MFI [2] | % labelled HEL cells [3] [%] | MFI [3] | % labelled HEL cells [4] [%] | MFI [4] |
| --- | --- | --- | --- | --- | --- | --- | --- | --- |
| humanized antibody 36-5 Hz121 (antibody, human IgG1, V domains shown, The variable regions were cloned into vector p3U containing the human IgG1 constant region; also called H-36.5Hz30 + L-36.5Hz31) VH: QVQLVQSGAEVKKPGASVKVSCKASGYTFTSYWMNWVRQAPGQGLEWMGRIDPSDSEIHYNQKFKGRVTMTVDTSTSTAYMELSSLRSEDTAVYYCARDYGSDYYAMDYWGQGTLVTVSS VL: QIVLTQSPAFQSVTPGEKVTITCSASQSVSYMHWYQQKSGTSPKLLIYSTSNLTSGVPSRFSGSGSGTDYTLTISSLEAEDAATYYCHQWSSYPFGGGTKVEIK | 59 | 210 | 67 | 228 | 73 | 241 | 70 | 236 |
| humanized antibody 36-5 Hz114 (antibody, human IgG1, V domains shown, The variable regions were cloned into expression vector p3U containing the human IgG1 constant region; also called H-36.5Hz27 + L-36.5Hz31) VH: QVQLVQSGAEVKKPGASVKVSCKASGYTFTSYWMNWVRQAPGQGLEWMGRIDPSDSEIHYNQKFKDKATLTVDKSTSTAYMELSSLRSEDTAVYYCARDYGSDYYAMDYWGQGTLVTVSS VL: QIVLTQSPAFQSVTPGEKVTITCSASQSVSYMHWYQQKSGTSPKLLIYSTSNLTSGVPSRFSGSGSGTDYTLTISSLEAEDAATYYCHQWSSYPFGGGTKVEIK | 64 | 225 | 66 | 228 | 74 | 242 | 70 | 136 |
| humanized antibody 36-5 Hz128 (antibody, human IgG1, V domains shown, The variable regions were cloned into vector p3U containing the human IgG1 constant region; also called H-36.5Hz31 + L-36.5Hz31) VH: QVQLVQSGAEVKKPGASVKVSCKASGYTFTSYWMNWVRQAPGQGLEWIGRIDPSDSEIHYNQKFKGRVTMTVDTSTSTAYMELSSLRSEDTAVYYCARDYGSDYYAMDYWGQGTLVTVSS VL: QIVLTQSPAFQSVTPGEKVTITCSASQSVSYMHWYQQKSGTSPKLLIYSTSNLTSGVPSRFSGSGSGTDYTLTISSLEAEDAATYYCHQWSSYPFGGGTKVEIK | 61 | 214 | 72 | 240 | 94 | 291 | 77 | 250 |
| ch36-05 chimeric monoclonal antibody (antibody, human IgG1, kappa, V domains shown, Murine VH + human IgG1 Fc; murine VL + human Kappa; also called chR036-05; chR036.05) VH: QVQLQQSGAELVKPGAPVKLSCKASGYTFTRYWMNWVKQRPGRGLEWIGRIDPSDSEIHYNQNFKDKATLTVDKSSSTAYIQLSSLTSEDSAVYYCARDYGSDYYAMDYWGQGTSVTVSS VL: QIVLTQSPAIMSASLGEEITLTCSASSSVSYMHWYQQKSGTSPKLLIYSTSNLTSGVPSRFSGSGSGTFYSLTISSVEAEDAADYYCHQWSSYPFGGGTKLEIKR | 43 | 259 | 80 | 259 | 80 | 251 | 81 | 262 |
